Assay results as given in publication PMC5469797 (2017).

How the values were obtained:
[1] = biological target: T1, catalytic domain of muPA (Gly2-Gly244, C122A) inhibited at the active site with Glu-Gly-Arg-chloromethylketone (murine, irreversible active site binding ligand Glu-Gly-Arg-chloromethylketone (EGR-cmk) in the active site); test: SPR; EGR-cmk inhibited
[2] = biological target: T2, full-length muPA inhibited at the active site with Glu-Gly-Arg-chloromethylketone (murine, UniProt P06869 21-433, irreversible active site binding ligand Glu-Gly-Arg-chloromethylketone (EGR-cmk) in the active site); test: SPR; EGR-cmk inhibited
T2 sequence (P06869 21-433): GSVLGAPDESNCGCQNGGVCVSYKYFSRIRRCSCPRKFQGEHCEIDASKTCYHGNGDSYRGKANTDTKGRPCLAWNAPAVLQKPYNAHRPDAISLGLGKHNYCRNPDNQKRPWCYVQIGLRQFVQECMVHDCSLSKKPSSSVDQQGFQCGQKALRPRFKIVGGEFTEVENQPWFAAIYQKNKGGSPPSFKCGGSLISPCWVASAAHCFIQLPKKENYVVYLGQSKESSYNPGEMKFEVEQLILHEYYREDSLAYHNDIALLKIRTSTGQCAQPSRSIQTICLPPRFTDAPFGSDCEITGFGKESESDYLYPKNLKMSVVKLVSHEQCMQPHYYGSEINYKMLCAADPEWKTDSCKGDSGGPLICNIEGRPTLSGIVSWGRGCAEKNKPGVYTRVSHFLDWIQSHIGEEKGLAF

[3] = biological target: T3, catalytic serine protease domain of murine urokinase-type plasminogen activator (muPA), Gly2-Gly244, C122A (murine); test: SPR
T3 sequence (chain, as listed by the source C122A): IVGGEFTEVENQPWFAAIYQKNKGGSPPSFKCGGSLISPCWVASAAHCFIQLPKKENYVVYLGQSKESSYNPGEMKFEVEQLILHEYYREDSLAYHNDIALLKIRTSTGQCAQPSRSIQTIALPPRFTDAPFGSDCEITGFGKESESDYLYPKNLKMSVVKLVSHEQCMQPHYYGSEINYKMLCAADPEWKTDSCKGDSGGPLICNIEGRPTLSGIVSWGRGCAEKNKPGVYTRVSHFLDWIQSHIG

[4] = biological target: T4, full-length murine urokinase-type plasminogen activator (muPA) (murine, UniProt P06869 21-433); test: SPR
T4 sequence (P06869 21-433): as the sequence (P06869 21-433) above

[5] = biological target: T1, catalytic domain of muPA (Gly2-Gly244, …); test: SPR; EGR-cmk inhibited; remark: listed apart in the source
[6] = biological target: T2, full-length muPA inhibited at the …; test: SPR; EGR-cmk inhibited; remark: listed apart in the source
[7] = biological target: T3, catalytic serine protease domain of …; test: SPR; remark: listed apart in the source
[8] = biological target: T4, full-length murine urokinase-type …; test: SPR; remark: listed apart in the source

T1 sequence (chain, as listed by the source C122A): as the sequence (chain, as listed by the source C122A) above

Kd [1]: 16.7 nM
Kd [2]: 19.3 nM
koff [3]: 0.0011 s⁻¹
koff [4]: 0.00054 s⁻¹
koff [5]: 0.00101 s⁻¹
koff [6]: 0.00084 s⁻¹
Kd [7]: 11.2 nM
Kd [8]: 7.5 nM
B1: anti-muPA allosteric nanobody Nb7 (VHH)
VHH: QVQLQESGGGLVQPGGSLRLSCAASGFTLGYYAIGWFRRAPGKEREGVSCISSSGGSTNYADSVKGRFTISRDNAKNTVDLQMNSLKPEDTAIYYCAAEWVPPGYGATVQALCNNAGYGMEYWGKGTQVTVSS
